Measured values from US20120201826A1 (NOV IMMUNE S A, published 2012).
Residue numbers refer to the chain shown, from its start.

Key:
[1] = target: T1, huRANTES immobilized on glycosaminoglycan (biotin labeled heparin) (human, UniProt P13501 24-91); assay: ELISA: biotin-heparin on streptavidin plate, huRANTES captured on the heparin, IgG detected with anti-human IgG Fc-HRP, OD450; antibody concentration not given
T1 construct: also called huRANTES immobilized on GAG; huRANTES in the context of GAG
T1 sequence: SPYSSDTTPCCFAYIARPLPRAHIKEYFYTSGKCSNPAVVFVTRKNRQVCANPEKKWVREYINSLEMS

[2] = target: T2, recombinant human RANTES (huRANTES, Peprotech) (human, UniProt P13501 24-91); assay: cell-based or functional assay
T2 sequence: T1 sequence

[3] = target: T3, native human RANTES produced by THP1 cells (human, UniProt P13501 24-91); assay: cell-based or functional assay
T3 sequence: T1 sequence

[4] = target: T3, native human RANTES produced by THP1 …; assay: cell-based or functional assay; remark: listed apart in the source
[5] = target: T2, recombinant human RANTES (huRANTES, …); assay: cell-based or functional assay; remark: listed apart in the source
[6] = target: T2, recombinant human RANTES (huRANTES, …); assay: cell-based or functional assay; remark: listed apart in the source
[7] = target: T4, NusA-cynoRANTES fusion protein (cynomolgus monkey, UniProt Q8HYQ1 24-91 (rhesus entry), biotinylated in vivo at the AviTag); assay: ELISA: chemokine fusion protein coated at 5 µg/ml, titration of 1E4, anti-human Fc-gamma-HRP and fluorescent substrate
T4 construct: also called cynomolgus RANTES; not shown: NusA fusion partner of expression plasmid pET43 (Novagen); Factor X protease cleavage site at the C-terminus of NusA; AviTag biotinylation site at the C-terminus of the chemokine
T4 sequence: T1 sequence with Y3H, S4A

[8] = target: T5, moIP-10 (mouse, UniProt P17515); assay: as above
T5 construct: coated protein of the ELISA panel; also called mouse IP-10
T5 sequence (chemokine, looked up): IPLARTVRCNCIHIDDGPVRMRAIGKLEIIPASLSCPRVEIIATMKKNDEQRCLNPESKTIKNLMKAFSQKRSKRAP

[9] = target: T6, NusA-huRANTES fusion protein (human, UniProt P13501 24-91, biotinylated in vivo at the AviTag); assay: as above
T6 construct: GenBank M21121 is printed for the human RANTES gene; also called NusA-Rantes; not shown: NusA fusion partner of expression plasmid pET43 (Novagen); Factor X protease cleavage site at the C-terminus of NusA; AviTag biotinylation site at the C-terminus of the chemokine
T6 sequence: T1 sequence

[10] = target: T7, mouse RANTES, expressed as fusion protein (ELISA panel) (mouse, UniProt P30882 24-91, Biotinylated in vivo at the AviTag, which is not in the letters); assay: as above
T7 construct: not shown: NusA fusion partner with Factor X site, and the C-terminal AviTag

[11] = target: T8, ratIP-10 (rat, UniProt P48973); assay: as above
T8 construct: coated protein of the ELISA panel
T8 sequence (chemokine, looked up): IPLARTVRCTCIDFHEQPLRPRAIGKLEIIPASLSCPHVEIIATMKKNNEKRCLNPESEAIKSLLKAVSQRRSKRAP

[12] = target: T9, rat RANTES, expressed as fusion protein (ELISA panel) (rat, UniProt P30882 24-91 (mouse entry), Biotinylated in vivo at the AviTag, which is not in the letters); assay: ELISA, chemokine coated at 5 ug/ml, concentration range of 1E4
T9 construct: not shown: NusA fusion partner with Factor X site, and the C-terminal AviTag

[13] = target: T10, mouse RANTES, biotinylated in vivo (Example 14) (mouse, UniProt P30882 24-91, biotinylated in vivo at the AviTag); assay: ELISA: biotinylated chemokine captured on Streptawell plate, 1E4 at 1 µg/ml, goat anti-human IgG Fc-gamma-HRP, TMB, OD450
T10 construct: Captured on streptavidin plates; not shown: AviTag biotinylation site at the C-terminus
Protocol: Three mutants of mouse RANTES were generated by site directed mutagenesis in order to introduce the human residues at those positions: [S16A/L17R/A18P]; [S32G/L37P] and [Q59R/Y64S]. […] These variant of mouse RANTES were captured in streptavidin coated plates (Streptawell, Roche). […] The plate was washed and incubated with a goat anti-human IgG Fcγ-specific antibody coupled to horse radish peroxidase (Jackson). […] The plates were read at 450 nm.

[14] = target: T4, NusA-cynoRANTES fusion protein; assay: SPR (Biacore 2000), 1E4 captured on anti-human IgG, chemokine as analyte, 25 C, 1:1 Langmuir fit
Protocol: (§1) 433 RU (response unit) of a donkey anti-human IgG polyclonal antibody were immobilized by EDC/NHS chemistry on a C1 Biacore chip. […] The surface was regenerated after each cycle by injection of 10 mM glycine pH=2 at 30 μL/min, for 60s followed by 1 min. of stabilization time in HBS-EP buffer.
(§2) All proteins were diluted in the running buffer HBS-EP buffer (Biacore AB, Uppsala, Sweden). Injection was performed at 75 μl/min for 3 min. followed by 15 min. of dissociation time and the temperature was set at 25° C.

[15] = target: T6, NusA-huRANTES fusion protein; assay: as above
Protocol: as §1, §2

[16] = target: T2, recombinant human RANTES (huRANTES, …); assay: as above
Protocol: as §1, §2

T10 sequence (P30882 24-91): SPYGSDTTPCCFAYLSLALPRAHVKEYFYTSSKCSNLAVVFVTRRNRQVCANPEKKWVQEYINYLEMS
T9 sequence (P30882 24-91 limits assumed): as the sequence (P30882 24-91) above
T7 sequence (P30882 24-91 limits assumed): as the sequence (P30882 24-91) above

B1: D1 antibody, IgG1 format (antibody, V domains shown)
VH: EVQLVQSGPEVKKPGATVKISCNVSAETFTDYYIHWVKQAPGRGLEWMGLVDSEEDGETLFAETFRGRVALTADRSTNTAYMELRSLRHDDTAVYYCAAEYGEYGFFQSWGQGTLVTVSS
VL: QSVLTQPPSVSGAPGQRVTISCTGSSSNIGADYDVNWYQQLPGTSPKLLIYGDINRPSGVPDRFSASKSGTSASLAITGLQAEDEADYYCQSFDNSLSGSVIFGGGTKLTVL
- binding result [1]: no binding
- Chemotaxis IC50 (nM), 1 nM huRANTES; L1.2-hCCR5 cells; IgG1 format [2]: 7 nM

B2: C8 antibody, IgG1 format (antibody, V domains shown)
VH: QVQLVESGGGVVQPGRSLRLSCAASGFTFSSYAMHWVRQAPGKGLEWVAVISYDGSNKYYADSVKGRFTISRDNSKNTLYLQMNSLRAEDTAVYYCARETFPHYYYYYMDVWGRGTLVTVSS
VL: SYVLTQPPSVSVAPGQTARITCEGDDTDIGTVNWYQQKPGQAPVLVISEDGYRPSGIPERFSGSNSGNTATLTISRVEAGDEADYYCQFWDVDSDHPVFGGGTQLTVLG
- Chemotaxis IC50 (nM), native huRANTES from THP1 cells; L1.2-hCCR5 cells; IgG1 format [3]: 1.6 nM
- Chemotaxis IC50 (nM), 0.2 nM huRANTES; L1.2-hCCR5 cells; IgG1 format [2]: 0.49 nM
- Chemotaxis IC50 (nM), 1 nM huRANTES; L1.2-hCCR5 cells; IgG1 format [2]: 2.1 nM

B3: 1D9 antibody, IgG1 format (antibody, V domains shown)
VH: QVQLVQSGAEVKKPGASVKVSCKVSGYTLTEFAMHWVRQAPGKGLEWMGGFVPEDGETIYAQKFQGRVTMTEDTSTDTAYMELSSLRSEDTAVYYCATDPLYTPGLEPWGQGTTVTVSS
VL: SYVLTQPPSVSVAPGQTARITCGGNNIESKSVHWYQQKPGQAPVLVVYDDSDRPSGIPERFSGSNSGNTATLTISRVEAGDEADYYCQVWDSNTDHWVFGGGTKLTVLG
- Chemotaxis IC50 (nM), native huRANTES from THP1 cells; L1.2-hCCR5 cells; IgG1 format [3]: 0.033 nM
- Chemotaxis IC50 (nM), 0.2 nM huRANTES; L1.2-hCCR5 cells; IgG1 format [2]: 0.038 nM
- Chemotaxis IC50 (nM), 1 nM huRANTES; L1.2-hCCR5 cells; IgG1 format [2]: 0.35 nM

B4: 1E4 antibody, IgG1 format (antibody, V domains shown)
VH: B3 VH with T103E, P104G, G105S, L106F, E107S, P108V
VL: B3 VL
notes: also called antibody 1E4 purified from CHO supernatant
- Chemotaxis IC50 (nM); L1.2-hCCR5; 1 nM native huRANTES [4]: 0.09 nM
- Chemotaxis IC50 (nM); L1.2-hCCR1; 2 nM huRANTES [5]: 0.46 nM
- Chemotaxis IC50 (nM); L1.2-hCCR3; 10 nM huRANTES [5]: 3.33 nM
- Chemotaxis IC50 (nM); L1.2-hCCR5; 1 nM huRANTES [5]: 0.2 nM
- Calcium flux IC50 (nM); L1.2-hCCR1; 25 nM huRANTES [6]: 4.9 nM
- Calcium flux IC50 (nM); L1.2-hCCR3; 25 nM huRANTES [6]: 4.46 nM
- Calcium flux IC50 (nM); L1.2-hCCR5; 4 nM huRANTES [6]: 0.54 nM
- EC50 (read off the curve) [7]: ~0.01 µg/mL
- binding result [8]: no binding (tested: about 3 µg/ml)
- EC50 (read off the curve) [9]: ~0.01 µg/mL
- binding result [10]: no binding (tested: about 3 µg/ml)
- binding result [11]: no binding (tested: about 3 µg/ml)
- binding result [12]: no binding
- binding result [13]: no binding (tested: 1 µg/ml)
- Kd [14]: 2240 pM
- Kd [15]: 447 pM
- Kd [16]: 455 pM
- Chemotaxis IC50 (nM), native huRANTES from THP1 cells; L1.2-hCCR5 cells; IgG1 format [3]: 0.028 nM
- Chemotaxis IC50 (nM), 0.2 nM huRANTES; L1.2-hCCR5 cells; IgG1 format [2]: 0.034 nM
- Chemotaxis IC50 (nM), 1 nM huRANTES; L1.2-hCCR5 cells; IgG1 format [2]: 0.46 nM

B5: E7 antibody, IgG1 format (antibody, V domains shown)
VH: QVQLVQSGAEVKKPGSSVKVSCKISGGISDNYALSWVRQAPGQGLEWMGAVIPLVETTSYAQRFQGRLTITADDSLNTLYMELGSLRSDDTAMYYCAREQVAVGPGPTSNRGPDGLDVWGRGTMVTVSS
VL: QSVLTQPPSVSGAPGQRVTISCTGSSSNIGDGYDVHWYQQLPGTAPKLLIYGNSNRPSGVPDRFSGSTSGTSASLAIRGLQSEDEADYYCGTWDDILNGWVFGGGTKLTVL
- binding result [1]: no binding
- Chemotaxis IC50 (nM), 1 nM huRANTES; L1.2-hCCR5 cells; IgG1 format [2]: 2.2 nM
